Laboratory results from patent publication US20110274653A1, “DENDRITIC CELL IMMUNORECEPTORS (DCIR)-MEDIATED CROSSPRIMING OF HUMAN CD8+ T CELLS” (priority 2010, published 2011).

B1: CD40L: CD40 ligand (R&D; 100 ng/ml) used as DC activator (protein, UniProt P29965 113-261, looked up)
CD40 ligand, soluble form: MQKGDQNPQIAAHVISEASSKTTSVLQWAEKGYYTMSNNLVTLENGKQLTVKRQGLYYIYAQVTFCSNREASSQAPFIASLCLKSPGRFERILLRAANTHSSAKPCGQQSIHLGGVFELQPGASVFVNVTDPSQVSHGTGFTSFGLLKL

How the values were obtained:
[1] = system: naïve CD8^+ T cells; test: Quality of primed CD8+ T cells (effector molecules, cytokines) by DC activator; assay type: cell-based, human; settings: IFN-α DCs targeted with anti-DCIR-MART-1, Luminex, FIG. 7F
Method: Expansion of antigen-specific T cells in DC/T cell coculture: To assess the function of DCs in presenting FluMP- or MART-1-derived antigens, the present inventors used DCs from HLA-A201^+ donors. Cells were cultured with conjugates mAbs at the indicated concentration. Syngeneic purified CD8^+ T cells were cultured with the antigen-pulsed DCs at a DC/T ratio 1:20. CD40L (100 ng/ml; R&D) was added to the culture after 24 h to enhance crosspresentation by DCs^49. The cocultures were incubated at 37° C. for 8-10 days. IL-2 was added at 10 U/ml at day 3. Where indicated, DCs were activated with TLR agonists: LPS (10, 50 or 200 ng/ml; […]; Invivogen). The expansion of FluMP-, MART-1-, and HIV gag p24-specific CD8^+ T cells was evaluated using HLA-A201-FluMP (58-66) peptide ([…]) (SEQ ID NO: 1), HLA-A201-MART-1 (26-35) peptide ([…]) (SEQ ID NO: 2) and HLA-A201-p24 (151-155) peptide ([…]) (SEQ ID NO: 3)-tetramers, respectively (Beckman Coulter). For the assessment of crosspriming to multiple CD8^+ T cell-specific epitopes, CD34^+-derived DCs were incubated with anti-DCIR-p24 or IgG4-p24 fusion mAbs and cultured with CFSE-labeled CD8^+ T cells at a DC/T ratio 1:30. […] The secreted IFN-γ was measured in the culture supernatants by Luminex. […] Secretion of IFN-γ, TNF-α, IL-12p40, IL-4, IL-5 and IL-13 were measured in the supernatant after 40 h by Luminex. […]

[2] = system: blood HLA-A201^+ mDCs; assay type: cell-based, human; settings: mDCs targeted with anti-DCIR.doc-coh.FluMP; Poly I:C 5 μg/ml, LPS 50 ng/ml, CL075 1 μg/ml
Method: The specific-FluMP CD8^+ T cell response was measured after 8-10 days using HLA-A201-FluMP (58-66) tetramer.

[3] = system: CD1a^+ LCs; test: DCIR-signaling effect on DC phenotype and activation (surface markers, cytokines); settings: stimulated 24 h
Method: DCIR-signaling effect on DC-function: CD34^+-derived DCs were cultured in anti-DCIR (clone 24A5 or 9E8) or isotype control coated plates in the presence or absence of CD40L (R&D; 100 ng/ml) or LPS (Invivogen; 50 ng/ml). After 24 h, cells were harvested and stained for surface phenotype. The secreted cytokines were analyzed by a multiplex bead assay (Luminex).

Molecule	cytokines of DCIR-primed CD8^+ T cells according to the DC activator [1]	effect of TLR agonist on FluMP-specific CD8^+ T cell response [2]	Mean fluorescence expression of CD40 [3]	Mean fluorescence expression of CD80 [3]	Mean fluorescence expression of CD86 [3]	Mean fluorescence expression of HLA-ABC [3]	Mean fluorescence expression of HLA-DR [3]	Mean fluorescence expression of ICOS-L [3]
CCCc1nc2c(N)nc3ccccc3c2s1 [CL075, reference compound]	preferentially secrete IFN-γ and TNF-α with markedly reduced amounts of IL-4, IL-5 and IL-13	–	–	–	–	–	–	–
Poly I:C	–	enhanced the FluMP-specific responses at low concentration of the targeting complex	–	–	–	–	–	–
B1	high amounts of type 2 cytokines (IL-4, IL-5 and IL-13)	–	31.8	241.0	294.0	108.0	1018.000	69.800
